From patent KR20120084755A (dated 2012)

Key:
[1] = biological target: T1, RSV 긴 균주(Long strain)로부터의 HIS 태그 포함 재조합 F 단백질 (Respiratory Syncytial Virus (RSV), Long …, UniProt P12568 26-524); experiment: direct ELISA, purified HIS-tagged F on Ni-NTA HisSorp plates (Fig. 3b right)
T1 construct: not shown: poly-HIS tag

RSV A2 바이러스의 F 단백질 = RSV A2 바이러스의 F 단백질 (Respiratory Syncytial Virus (RSV), …, UniProt P03420 26-574); experiment: cell-based or functional assay
Sequence of RSV A2 바이러스의 F 단백질 (P03420 26-574): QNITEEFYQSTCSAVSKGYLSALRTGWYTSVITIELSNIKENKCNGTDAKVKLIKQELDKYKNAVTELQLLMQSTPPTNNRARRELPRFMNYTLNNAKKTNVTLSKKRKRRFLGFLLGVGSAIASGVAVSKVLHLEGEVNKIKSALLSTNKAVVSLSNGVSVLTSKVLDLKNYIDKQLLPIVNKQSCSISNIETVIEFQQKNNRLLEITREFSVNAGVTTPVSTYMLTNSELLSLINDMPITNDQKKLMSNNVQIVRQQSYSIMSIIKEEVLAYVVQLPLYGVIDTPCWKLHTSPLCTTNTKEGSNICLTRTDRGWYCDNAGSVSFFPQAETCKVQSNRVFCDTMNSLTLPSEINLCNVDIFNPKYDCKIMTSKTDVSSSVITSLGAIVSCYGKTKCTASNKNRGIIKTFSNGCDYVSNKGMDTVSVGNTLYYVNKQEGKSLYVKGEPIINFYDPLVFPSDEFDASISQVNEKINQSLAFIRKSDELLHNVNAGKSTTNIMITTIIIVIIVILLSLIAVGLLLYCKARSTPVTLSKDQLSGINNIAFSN

T1 sequence (P12568 26-524): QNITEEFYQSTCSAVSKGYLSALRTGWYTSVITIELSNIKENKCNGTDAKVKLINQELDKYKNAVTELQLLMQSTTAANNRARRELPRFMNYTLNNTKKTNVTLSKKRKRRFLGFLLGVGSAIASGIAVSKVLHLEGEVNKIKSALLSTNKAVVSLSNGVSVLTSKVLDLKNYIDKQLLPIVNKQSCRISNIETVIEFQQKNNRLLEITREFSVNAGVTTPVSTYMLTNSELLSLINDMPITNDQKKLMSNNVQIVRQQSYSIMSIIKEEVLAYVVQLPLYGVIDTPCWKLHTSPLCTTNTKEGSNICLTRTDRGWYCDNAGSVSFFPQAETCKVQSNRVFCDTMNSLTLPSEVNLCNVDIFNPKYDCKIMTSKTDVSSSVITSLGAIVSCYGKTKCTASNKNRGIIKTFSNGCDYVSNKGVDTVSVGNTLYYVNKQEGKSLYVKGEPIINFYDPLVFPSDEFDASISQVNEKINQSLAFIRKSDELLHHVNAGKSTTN

B1: AM22 (antibody, V domains shown)
VH: QVQLVQSGAEVKKPGATVKVSCKISGHTLIKLSIHWVRQAPGKGLEWMGGYEGEVDEIFYAQKFQHRLTVIADTATDTVYMELGRLTSDDTAVYFCGTLGVTVTEAGLGIDDYWGQGTLVTVSS
VL: EIVLTQSPGTLSLSPGERATLSCRASQIVSRNHLAWYQQKPGQAPRLLIFGASSRATGIPVRFSGSGSGTDFTLTINGLAPEDFAVYYCLSSDSSIFTFGPGTKVDFK
notes: also called 재조합 AM22 mAb; AM22 항체
[1]
  binding result: no binding
RSV A2 바이러스의 F 단백질
  IC50, RSV A2 neutralisation on HEp2 cells (standard TCID50 culture assay): 1.15 ng/㎖
